Measurements reported in patent US20230080534A1, “SEMG2 ANTIBODY AND USE THEREOF” (SHANGHAI BIOTROY BIOTECHNIQUE CO., LTD., priority 2020, published 2023).
No end group written: not given here.

Experiments:
CD27 protein = target: T1, CD27 protein (Homo sapiens, UniProt P26842); test: ELISA binding of BSA-conjugated SEMG2 (497-509) polypeptides to CD27; conditions: versus negative BSA control
T1 construct: the extracellular region of human CD27 protein fused to the Fe fragment of human antibody
T1 sequence (P26842 20-191 limits assumed): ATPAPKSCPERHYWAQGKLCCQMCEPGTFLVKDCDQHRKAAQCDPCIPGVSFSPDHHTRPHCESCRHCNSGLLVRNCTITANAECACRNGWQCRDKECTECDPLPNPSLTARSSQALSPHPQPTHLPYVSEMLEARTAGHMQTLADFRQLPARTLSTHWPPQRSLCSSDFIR
Description: (§1) FIG. 6 depicts the binding between SEMG2 epitope polypeptides and CD27, and its competitive inhibition of full-length SEMG2 binding to CD27. […] As shown in the figure, different concentrations of peptides are firstly co-incubated with CD27-Fc for binding, and then added into the micro-reaction plate pre-coated with SEMG2 protein. After co-incubation, the unconjugated molecules are washed off, and anti-Fc secondary antibody-HRP are then used for detecting and developing.
These mutant plasmids and CD27 expression vector were co-transfected into HEK293 cells, and the degree of GFP-fused 1-13 polypeptide variants binding to CD27 was detected by co-immunoprecipitation assay. […] Therefore, it can be seen that the amino acids at positions 497, 498, 499, 500, 501, 502, 503, 504, 505, 506 and 508 of SEMG2 have obvious effects on the binding to CD27. The peptide sequence 497-509 was coupled to BSA, and coated onto a 96-well microplate. CD27-hFc at different concentrations was used as the primary antibody to detect the ability of CD27 to bind to the peptide sequence.

[1] = target: T2, binding between full-length SEMG2 and CD27 (Homo sapiens, UniProt P26842); test: Peptide competition ELISA: CD27-Fc pre-incubated with peptide, added to SEMG2-coated plate; conditions: different concentrations of peptide co-incubated with CD27-Fc
T2 construct: the extracellular region of human CD27 protein fused to the Fe fragment of human antibody
T2 sequence (P26842 20-191 limits assumed): T1 sequence (P26842 20-191 limits assumed)
Description: as §1

human CD27 = target: T3, human CD27 (Homo sapiens, UniProt P26842); test: Co-immunoprecipitation of GFP-fused SEMG2 fragments with CD27 in co-transfected HEK293 cells; format: binding; conditions: GFP-fused fragment co-transfected with CD27 into HEK293 cells
T3 construct: HA; expressed in transfected cells; host or cells: HEK293
T3 sequence (P26842 20-260): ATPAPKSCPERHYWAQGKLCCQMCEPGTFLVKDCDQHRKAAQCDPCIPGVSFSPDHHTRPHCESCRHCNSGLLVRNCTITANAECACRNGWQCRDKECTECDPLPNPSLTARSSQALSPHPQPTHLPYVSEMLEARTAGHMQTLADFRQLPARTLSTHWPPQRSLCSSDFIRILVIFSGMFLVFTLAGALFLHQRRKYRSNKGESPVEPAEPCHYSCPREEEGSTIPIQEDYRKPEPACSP
Description: (§2) In co-immunoprecipitation experiment, cells were lysed in IP buffer (Thermo Scientific) and Roche complete protease inhibitor for 10 minutes, followed by the addition of benzonase (sigma) for 25 minutes at room temperature. The lysate was then centrifuged at 15,000 rpm at 4° C. to remove the precipitate. The supernatant was then incubated with primary antibody slowly rotated overnight at 4° C., followed by the addition of protein A or protein G dynabeads and incubated at 4° C. for 2 hours, washed for 4 times in PBST (PBS with 0.01% Tween 20), eluted with 50 mM DTT in SDS sample buffer for 10 minutes at 100° C., separated with SDS, and immunoblotted as previously described.
To further confirm which part of SEMG-2 binds to CD27, fragments of SEMG2 protein were designed. The amino acid sequence of full-length SEMG2 protein (SEQ ID NO:1) was divided into 6 segments of sequences, fused with GFP and named as SEMG2-P1, SEMG2-P2, SEMG2-P3, SEMG2-P4, SEMG2-P5 and SEMG2-P6 (See Table 1 for specific sequences, with corresponding abbreviation as P1-P6 respectively). Plasmids expressing these amino acid sequences were co-transfected with CD27 into HEK293 cells, and co-immunoprecipitation experiments were performed to identify the main fragment of SEMG2 that binds to CD27. […]

mouse CD27 = target: T4, mouse CD27 (Mus musculus, UniProt P41272); test: Co-immunoprecipitation of GFP-fused SEMG2 fragments with mouse CD27 in co-transfected HEK293 cells; format: binding; conditions: GFP-fused fragment co-transfected with mouse CD27 into HEK293 cells
T4 construct: HA; expressed in transfected cells; host or cells: HEK293
T4 sequence (P41272 24-250): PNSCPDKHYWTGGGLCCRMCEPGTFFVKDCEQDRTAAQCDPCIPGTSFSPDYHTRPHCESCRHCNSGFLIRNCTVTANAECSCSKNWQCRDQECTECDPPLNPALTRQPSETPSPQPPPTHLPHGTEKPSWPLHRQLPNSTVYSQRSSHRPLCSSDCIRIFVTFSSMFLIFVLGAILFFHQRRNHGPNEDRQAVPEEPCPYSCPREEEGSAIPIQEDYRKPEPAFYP
Description: as §2
To further confirm the key amino acids in the binding between SEMG2-P5 sequence and CD27, SEMG2(497-509) fragment was selected and named as SEMG2-P7 (the specific sequence is QIEKLVEGKSQIQ, abbreviated as P7 or SP7). SEMG2-P7(497-509), SEMG2-P5(positive control), SEMG2-P4 (negative control) or SEMG2-P6 (negative control) was co-transfected with CD27 into HEK293 cells respectively, including human CD27 and mouse CD27. […] This co-immunoprecipitation experiment confirmed that SEMG2(497-509) is the main structure that binds to human and mouse CD27.

binding to CD27 protein on the microplate (CD27 protein)	inhibitory effect on the binding between full-length SEMG2 and CD27 [1]	binding to CD27 (co-immunoprecipitation) (human CD27)	binding to mouse CD27 (co-immunoprecipitation) (mouse CD27)	Substance
can bind				BSA-conjugated human SEMG2 (497-509) polypeptide: human SEMG2 (497-509) peptide coupled to BSA (QIEKLVEGKSQIQ; also: coupled to BSA, site not given here)
	can inhibit the binding			QIAKLVEGKSQ [SEMG2-derived polypeptide derivative]
	can inhibit the binding			QIEKLVEGKSQI (UNSURE (1)..(12) Epitope peptides)
	can inhibit the binding	bind	bind	QIEKLVEGKSQIQ (UNSURE (1)..(13) Epitope peptides) [SEMG2-P7]
	can inhibit the binding			QIEKLVEGKSQ (UNSURE (1)..(11) Epitope peptides)
